Data taken from the DeepSol protein solubility set.

Assay: soluble on expression in E. coli; label from the status in PepcDB or PDB records

| Sequence | soluble on expression in E. coli |
| --- | --- |
| MKVDLFDFHLPEELIAQTPLPDRAASRLMVLDKRTGAIRHETFRNIISYLNPGDCLVLNDTRVMPARLYGEKEETGGTVEVLLLKQLDGDRWETLVKPGKRVKPGTKLTFGGGKLEAVCLDTLEHGGRVLEFSYDGLFYEVLAELGEMPLPPYIKEKLDDPERYQTVYAREIGSAAAPTAGLHFTEELLDAIREKGVHIVFITLHVGLGTFRPVQVDEVEKHDMHAEFYQMSEETAETLNRVREQGGRIIAVGTTSTRTLETIAGKHNGRFVAESGWTDIFIYPGYEFKGIDGLVTNFHLPKSTLIMLVSALAGRENILHAYQVAVKERYRFFSFGDAMLII | not soluble |
| MKVFEGKPRINSPHITGNYPSTPFIFYIPTSGQRPMQWSAEKLPEGLELDSKTGIISGVMTSKGDYTVTLKAENALGVSVKQLEHHHHHH | not soluble |
| MKVKSISRFFSMKKVTLSFVTLFIGVGTIGSYNQYADASMKTQQTHVTKSSPTQKTTSNFKRSVKDTSVKSRATSIKRATSTKQAISPKTSSTKKTTIAKKSTTVNKTRTTTKTQPTIRKSSTTSTRSKTMPTSVKRTTSHKATTVSPTSKAKISTKTQQSTKSHTTSVKKNTTQLSKTKSPSTSTKSKTVQSSTTKAQPTLSTQVSTTTKAKQFSTPTTSKTDSSKSLVSLASTERKIDKYQSMTQLEKETTEGVDWRKDTKNTGNQVLIVAPHGGSIEQGTTELTKALADKGNYDYYSFEGIRPKNNSELHVTSTHYDDPTLNQMIKNRTATISIHGASGSEEIIYLGGPRSDLRNAIEKQLVARGFTVKVPPEYLGGQNNKNFINREDNNTGVQLELTTALRKAFFKNGDTSTKNRTNKENWTPTMEEFINALYEGINQTYSLEHHHHHH | not soluble |
| MKVLFAKTFVKDLKHVPGHIRKRIKLIIEECQNSNSLNDLKLDIKKIKGYHNYYRIRVGNYSIGIEVNGDTIIFRRVLHRKSIYDYFP | soluble |
| MKVLFRSDSSSQIGFGHIKRDLVLAKQYSDVSFACLPLEGSLIDEIPYPVYELSSESIYELINLIKEEKFELLIIDHYGISVDDEKLIKLETGVKILSFDDEIKPHHCDILLNVNAYAKASDYEGLVPFKCEVRCGFSYALIREEFYQEAKENRKKKYDFFICMGGTDIKNLSLQIASELPKTKIISIATSSSNPNLKKLQKFAKLHNNIRLFIDHENIAKLMNESNKLIISASSLVNEALLLKANFKAICYVKNQESTATWLAKKGYEVEYKYLEHHHHHH | soluble |
| MKVLHMNAGAEEGGGKTHIISLLSQFSKEEVELMVFEEGAIAREARNLGIQVHVFTQSSRYDLSILSKIKAFINENQFDIVHTHGARANFYLSLLKKGIKAKWIMTVHSDPTLDFMKRGLKGWVFTKLNLRSFRKVDLFFAITENFKRNIIKLGVPEEKICTVYNGIEYDSNPAKPYDKSEFGIDEGIFTAIQVARLHPVKGHDILFEALQKIKIPNIKVLLLGDGPIEAELKEMVKQKGLEDKVMFLGFRIDSKELYASAHINLLTSYSESFPLVLLEAANQRLTSIATNVGDMKKLIVDDTYGWIVPIGDADSLANALENAYEKWLNGELEAMGNRLYTHASTHFSLKNLYEDTYNAYKTLLLK | not soluble |
| MKVLILTVGTTREPLEVALAEHAPQGVVFLASQASHPVAAELVRDYGGSFRHHTLLLEDAESLMEAYQKALLALRKALEWEATAIVADLTGGTKPMAAGLVLALTGRGVVFSYVGGEARDPGTGRVLAGKERLRLLEDPTARLGLKEWAGFTRAWNALNLGMALAELESLLRRDLSPSEARFYGAMKGVVEGLMEWDRFRHREAWERLSVHLPLALAVAEAWGHGAKVRVLKGLEALLPHLKGIVEAGPKPTFLLLQDLLANAERRAALGRFDDALARLYRALELAVEADVHERLGFSLKDPRTWPEGFPEGLRERILKPRGLMDLLDAAFDLDLAFGEQGTLAQRLYGEKNRLQALLQRRHESILAHGTRPVGEEDYTALRDFLMRLDERLRPLPPWPRF | soluble |
| MKVRFLQISDLHFQFQNYDTIVMRDKLLDFIEVLRRESDFDFLLLTGDIAHKGDVYNEDVKEYLNGIIKSMGLSKNNVHLVPGNHDISRDMTRTLLIDSIMKSPNPSEMLDKLDQKATNILVEGQRKFFDFYEDFMGVKYPEEDLHFLYQSEKYNVLSINTCLLSDKKGEEGTLLTAQMKLYKAIRKMNKEKNKGKVLNIAIGHHTLGCIESSERESIKAHFDDYFIDLYLAGHVHDSSFNITANTNENPFLELVSGAIIKDEYATPEFISVDVNLDNGETEVTYYIWNTEYKYWSKNNQGGRRLQEGKLNYKINRLESLIEKEIEDNDDKIDEDEFKSFIIDFHEYRESYKTFTSNFDNQIGLDKKFYDMKSGETFKRKFDSYSEYFGVINHIMDSTSYVSADKKELIAETIVDKYLEFHNQYNNGDEIFVKIVNEIYLECHSVLPYSKALTKKYIKILTCWCIYECEIFNDNKRSVKNDLEHHHHHH | soluble |
| MKVSLVIPTYNSKDLVAPCLVSLNHQRLDEADEFEVVLVDDGSTDGTGEVVDSLPLTYRIRRVYVPRTEKSCRSAARNAGIRAADGELIVFVDGDQIIDPLFVQEHIRCHRGRPAIVAIGFRDYQAPGAVDLALLERSFTPEAFPPVADQDERAQVTATLSQNMGNLATGWHFFYGCNVSVRKEHLLAVGGFDENIQKWSFEDVELGYRLHRRGLAFVHNLYSRVYHQFHPESDQERYADWRENFEYFTSKHPELEVRLQWVLDSYFDPGRTSRPSWFDAYLRFEFACRAVAERLPIGHSYEVLVVDADNLDSAEREIARVGAAHDLIVVDITDDRELPTAVQAMRTGRELLYFKEPSPELLQQAAKSFGCAALLKYAAEVLEHHHHHH | soluble |
| MKYCKFCCKAVTGVKLIHVPKCAIKRKLWEQSLGCSLGENSQICDTHFNDSQWKAAPAKGQTFKRRRLNADAVPSKV | soluble |
| MKYFEFTFHTSPCTETVNDVLAAVLGEAGFESFVESEGGLTAYIQQALCDENTIKNAITEFPLPDTEITYTYVEAEDKDWNEEWEKNFFQPIVIDNRCVIHSTFHKDVPQATYDIVINPQMAFGTGHHETTSLIIGELLDNELKDKSLLDMGCGTSILAILARMRGARPCIAIDIDEWCVRNSIENIELNHVDDIAVSQGDASSLVGKGPFDIIIANINRNILLNDMKQYVACMHPGSELYMSGFYVDDIPFIRREAEKNGLTFVHHKEKNRWAAVKFTY | not soluble |
| MKYFNVGKIVNTQGLRGEVRVLSVTDFADERFKKGSQLALFDKKDHFAMTVEIASHRKHKNFDIVKFKGLYHINDVEKYRDFTLKVTEDHLADLEDGEFYYHEIIGLDVYENDILIGQVKEILQPGANDVWVVKRKGKKDLLLPYIPSVILKVDVPNGRIDVTVLEGLDDENLEHHHHHH | soluble |
| MKYIVAVNASPRSGWNTSQLVEAAAKGAKEAGATVDIIDLYKLEPFQGCISCFGCKLPRTFGRCVSKDGLSEVLDKIRKADGLILGSPNYLGNLTAGFRALYERLIFQSLTYNKERPNCNEHMIPVLLITTSNCDESIYDKIGYTSMLEGYKQMLERFVGPLEHHHHHH | not soluble |
| MKYLAAYLLLVQGGNAAPSAADIKAVVESVGAEVDEARINELLSSLEGKGSLEEIIAEGQKKFATVPTGGASSAAAGAAGAAAGGDAAEEEKEEEAKEESDDDMGFGLFD | soluble |
| MKYNTMNNDEIILSLCARLKETRLSLSMTQQQLADRAHVGIATIKRIEKGGGLNLDTLISLLRALDKLHNLDAVLFESELRNFHESYEGGEGSGRLQVRQQAADLNNKSSAPQSEEVNYSAALENSLCW | not soluble |
| MLAGHTLIESKNDHQSRRNCEFRRAIAAAGRCRRVYGGALPLLASSVPMSVRMDTRHRQKQALAQTAATMIEPGEFIFLDSGSTNLALIDFLPKGYDLTLATNSIDIAGAALRGQDLKLIMLGGTVDLAVGGCVDATAIGSLAQMNIDRSFIGVCSVSPTFGLSAFDIADATFKRALVAASGYTIALATTDKLEVRAPHRVSEINEIDCLVLEHDAPISHLDDLVRAGASIVKALQPFAAALEHHHHHH | not soluble |
| MLAHIKITHFAIVKSLELDLTKGMTTITGETGAGKSIAIDALGLCLGDRAEASMVRQGEEKAEITVLFTLENNINAKRWLEDNELYDGNDCILRRVITKEGRSRGFINGSPVPAAQLKTLGHLLINIHGQHAHHELMKPEYQLNMLDQYAGHVSLLNKTRSRYQAWRQA | not soluble |
| MLASIPLKDIQIQDRFWKERLDLVRKEIIPYQWEAMNDRVPNAEPSHCIENYRIAAGQAQGSFYGEVFQDSDLAKWLEAVAYVLSFQPDPKLEKLADEAIELVCAAQQSDGYLNTFFTIKEPDQRWRNLREGHELYCAGHMMEAAVAYFEATGKRRLLDAMMRFADLICNTFGPEEGKIHAYPGHEEVELALFRMYRATGVRRYLELSAYFINCRGTGENYFRKENDRPGYLPIWGSMDTNSDMSYYQAHQPVREQKQAAGHAVRAMYLYSAMADLAGELKDEGLLNACKTLWNNVTERQMYVTGGVGASGILERFTTDYDLSNEMAYAESCASIGLMLFGLRMNRVTRQAQYFDPVERALYNTVLASVALDGKSFFYVNPLEVWPKACMPYTSKEHVKPVRQPWFSCACCPPNVARTFASLGQYIWAQDSQRVYLNLFISSTVKAKNGAILKLETEFPMGNVLKITSDQVLELAVRIPGYGKNFRANVSYRKENGYGVFELEAGKELEIQFDAPACFIRANPEVRACSGKVCIQRGPVVYCLEEIDNGSNLSALSVDTAVSPGERESDIPGGLMITASGKRRRPWADDKLYGEIPSQYEETVLQAVPYAFWGNREKGEMTVWIRESLEHHHHHH | not soluble |
| MLDANKLQQAVDQAYTQFHSLNGGQNADYIPFLANVPGQLAAVAIVTCDGNVYSAGDSDYRFALESISKVCTLALALEDVGPQAVQDKIGADPTGLPFNSVIALELHGGKPLSPLVNAGAIATTSLINAENVEQRWQRILHIQQQLAGEQVALSDEVNQSEQTTNFHNRAIAWLLYSAGYLYCDAMEACDVYTRQCSTLLNTIELATLGATLAAGGVNPLTHKRVLQADNVPYILAEMMMEGLYGRSGDWAYRVGLPGKSGVGGGILAVVPGVMGIAAFSPPLDEDGNSVRGQKMVASVAKQLGYNVFKGLEHHHHHH | not soluble |
| MLDLFADAEPWQEPLAAGAVILRRFAFNAAEQLIRDINDVASQSPFRQMVAPGGYTMSVAMTNCGHLGWTTHRQGYLYSPIDPQTNKPWPAMPQSFHDLCQRAATAAGYPDFQPDACLINRYAPGAKLSLHQDKDEPDLRAPIVSVSLGLPAIFQFGGLKRNDPLKRLLLEHGDVVVWGGESRLFYHGIQPLKAGFHPLTTDCRYNLTFRQAGKKE | not soluble |
| MLDPFSEKAKELLKEFGSMNEFLQAIPSLVDIEEVMNRLKFAKESEISEDILNIEDIRDLASFYAQIGALAYSPYGLELELVKKANLRIYTERIRRRRKIRSDEIGIEVKIAVEFPENDIKTLEKVYGGLPEYIVSLREFLDLVPDEKLSSYYVYDGNVYLRKDDLLKVWSKAFERNVEKAVNIIYEIRDELPEFYRRLAGEIRSFAEKEFSDKFREVQAGELKHHLFPPCVKNALRGVPQGMRNYAITVLLTSFLSYARICPNPPRRNVKIRDCIKDMRVITEEILPIIIEAGNRCSPPLFEDQPNEIKNIWYHLGFGYTANPTLEDSGNSTWYFPPNCDKIKANAPQLCTPDKHCRYIRNPLTYYLRRLYLEEKRRAKHADEGSDKGGKERILQLEHHHHHH | not soluble |
